Patent publication US20170137467A1 (CHROMOTEK, published 2017)
Substitutions are numbered along the chain they refer to. Square brackets hold non-standard residues; d marks the D form. Ends that are not written are not given here. GABA = NCCCC(=O)O

How the values were obtained:
β-catenin peptide 73-87 = biological target: T1, β-catenin peptide 73-87 (human, UniProt P35222); assay: pepscan: 15-mer peptide on OVA-microspheres, biotinylated BC2-Nb, streptavidin-PE
T1 construct: synthetic 15-mer; additional N-terminal cysteine for coupling; also called Start 73 End 87
T1 peptide (looked up): SFTQEQVADIDGQYA
Text: (§1) As negative controls, microspheres comprising Ovalbumin and the Myc-peptide ([…]) covalently coupled to OVA-microspheres were used. […] Evaluation of the PE-signals were done in a Flexmap 3D (Luminex).

AMEPDRKAAVSHWQQ = biological target: T2, AMEPDRKAAVSHWQQ (also: coupled via added N-terminal Cys to OVA-microspheres); assay: as above
T2 construct: also called β-catenin peptide Start 13 End 27
T2 peptide: CAMEPDRKAAVSHWQQ
Text: as §1

β-catenin peptide 93-107 = biological target: T3, β-catenin peptide 93-107 (human, UniProt P35222); assay: as above
T3 construct: synthetic 15-mer; additional N-terminal cysteine for coupling; also called Start 93 End 107
T3 peptide (looked up): RVRAAMFPETLDEGM
Text: as §1

BC2T Q12D = biological target: T4, BC2T Q12D; assay: positional peptide library pulldown on immobilised Nb, LC-MS of supernatant; signal ratio to control GFP-Nb (1 = not captured, near 0 = captured)
T4 construct: positional scanning library member
T4 peptide: Ac-PDRKAAVSHWQD-NH2
In short: (§2)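 Unbound peptide left in supernatant after 1 h pulldown in PBS/0.01% CHAPS measured by reversed-phase LC-MS (8–30% eluent B gradient, 20 min).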

BC2T Q11D = biological target: T5, BC2T Q11D; assay: as above
T5 construct: positional scanning library member
T5 peptide: Ac-PDRKAAVSHWDQ-NH2
In short: as §2

BC2T A6T = biological target: T6, BC2T A6T; assay: as above
T6 construct: positional scanning library member
T6 peptide: Ac-PDRKATVSHWQQ-NH2
In short: as §2

BC2T P1S = biological target: T7, BC2T P1S; assay: as above
T7 construct: positional scanning library member
T7 peptide: Ac-SDRKAAVSHWQQ-NH2
In short: as §2

BC2T D2E = biological target: T8, BC2T D2E; assay: as above
T8 construct: positional scanning library member
T8 peptide: Ac-PERKAAVSHWQQ-NH2
In short: as §2

BC2T V7D = biological target: T9, BC2T V7D; assay: as above
T9 construct: positional scanning library member
T9 peptide: Ac-PDRKAADSHWQQ-NH2
In short: as §2

BC2T A5C(Abu) = biological target: T10, BC2T A5C(Abu) (SMILES …); assay: as above
T10 construct: positional scanning library member
T10 peptide: Ac-PDRK[GABA]AVSHWQQ-NH2
In short: as §2

BC2T A6F = biological target: T11, BC2T A6F; assay: as above
T11 construct: positional scanning library member
T11 peptide: Ac-PDRKAFVSHWQQ-NH2
In short: as §2

BC2T D2P = biological target: T12, BC2T D2P; assay: as above
T12 construct: positional scanning library member
T12 peptide: Ac-PPRKAAVSHWQQ-NH2
In short: as §2

BC2T P1W = biological target: T13, BC2T P1W; assay: as above
T13 construct: positional scanning library member
T13 peptide: Ac-WDRKAAVSHWQQ-NH2
In short: as §2

BC2T V7Q = biological target: T14, BC2T V7Q; assay: as above
T14 construct: positional scanning library member
T14 peptide: Ac-PDRKAAQSHWQQ-NH2
In short: as §2

BC2T R3K = biological target: T15, BC2T R3K; assay: as above
T15 construct: positional scanning library member
T15 peptide: Ac-PDKKAAVSHWQQ-NH2
In short: as §2

BC2T D2T = biological target: T16, BC2T D2T; assay: as above
T16 construct: positional scanning library member
T16 peptide: Ac-PTRKAAVSHWQQ-NH2
In short: as §2

BC2T R3N = biological target: T17, BC2T R3N; assay: as above
T17 construct: positional scanning library member
T17 peptide: Ac-PDNKAAVSHWQQ-NH2
In short: as §2

BC2T V7F = biological target: T18, BC2T V7F; assay: as above
T18 construct: positional scanning library member
T18 peptide: Ac-PDRKAAFSHWQQ-NH2
In short: as §2

BC2T A5H = biological target: T19, BC2T A5H; assay: as above
T19 construct: positional scanning library member
T19 peptide: Ac-PDRKHAVSHWQQ-NH2
In short: as §2

BC2T D2Q = biological target: T20, BC2T D2Q; assay: as above
T20 construct: positional scanning library member
T20 peptide: Ac-PQRKAAVSHWQQ-NH2
In short: as §2

B1: BC2 nanobody (VHH)
VHH: QVQLVESGGGLVQPGGSLTLSCTASGFTLDHYDIGWFRQAPGKEREGVSCINNSDDDTYYADSVKGRFTIFMDNAKDTVYLQMNSLKPEDTAIYYCAEARGCKRGRYEYDFWGQGTQVTVSS
notes: Alpaca VHH, 122 aa; also called BC2-Nb; BC2 nanotrap (BC2-Nb immobilized on agarose/Sepharose beads); not shown: C-terminal 6xHis-tag added by the pHEN6 vector
B1: no binding (tested: 1 µg/ml BC2-Nb) (β-catenin peptide 73-87); binds (AMEPDRKAAVSHWQQ); no binding (tested: 1 µg/ml BC2-Nb) (β-catenin peptide 93-107).

B2: BC2 nanobody (VHH)
VHH: B1 VHH
notes: immobilised on beads in this assay; also called BC2-Nb; BC2 nanotrap (immobilised)
B2 showed a ratio (BC2T Q12D) of 0.6 and a ratio (BC2T Q11D) of 0.2.

B3: BC2-NbR106E (VHH)
VHH: B1 VHH with R106E
notes: headlock mutant of BC2-Nb; immobilised on beads in this assay
For B3, the ratio (BC2T A6T) was 0.3, the ratio (BC2T P1S) was 0.4 and the ratio (BC2T D2E) was 0.2. For the same binder, the ratio (BC2T V7D) was 0.9, the ratio (BC2T A5C(Abu)) was 0.1 and the ratio (BC2T A6F) was 1. It also gave a ratio (BC2T D2P) of 0.8, a ratio (BC2T P1W) of 0.2 and a ratio (BC2T V7Q) of 0.4. It also gave a ratio (BC2T R3K) of 0.3, a ratio (BC2T D2T) of 0.1 and a ratio (BC2T R3N) of 0.9. The ratio (BC2T V7F) was 0.2, the ratio (BC2T A5H) was 0.2 and the ratio (BC2T D2Q) was 0.1.
